Laboratory results taken from patent US20010021505A1.

How the values were obtained:
[1] = target: NPM/ALK fusion protein (human); experiment: co-immunoprecipitation with anti-ALK serum, immunoblot, SUP-M2 lysates
[2] = target: T1, Src homologous and collagen (SHC) protein (human) (UniProt P29353); experiment: co-immunoprecipitation, immunoblot, SUP-M2 lysates
T1 sequence (tyrosine-phosphorylated (sites not given), looked up): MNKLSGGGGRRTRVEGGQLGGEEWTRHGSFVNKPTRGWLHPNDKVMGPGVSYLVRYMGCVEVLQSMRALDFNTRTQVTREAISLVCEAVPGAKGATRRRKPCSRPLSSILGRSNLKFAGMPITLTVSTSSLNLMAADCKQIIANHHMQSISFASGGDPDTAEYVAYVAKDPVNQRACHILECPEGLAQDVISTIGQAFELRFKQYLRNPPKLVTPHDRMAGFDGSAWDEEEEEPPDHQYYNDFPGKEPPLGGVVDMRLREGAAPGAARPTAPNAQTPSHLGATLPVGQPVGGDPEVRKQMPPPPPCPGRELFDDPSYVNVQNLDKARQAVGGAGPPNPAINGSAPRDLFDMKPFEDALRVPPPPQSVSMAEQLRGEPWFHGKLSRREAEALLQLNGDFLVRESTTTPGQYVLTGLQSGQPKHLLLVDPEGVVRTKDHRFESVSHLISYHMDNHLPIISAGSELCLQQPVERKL

[3] = target: phospholipase-Cγ (PLC-γ) (human) (UniProt P19174); experiment: co-immunoprecipitation, immunoblot, SUP-M2 lysates
Sequence of UniProt P19174 (P19174 2-1290): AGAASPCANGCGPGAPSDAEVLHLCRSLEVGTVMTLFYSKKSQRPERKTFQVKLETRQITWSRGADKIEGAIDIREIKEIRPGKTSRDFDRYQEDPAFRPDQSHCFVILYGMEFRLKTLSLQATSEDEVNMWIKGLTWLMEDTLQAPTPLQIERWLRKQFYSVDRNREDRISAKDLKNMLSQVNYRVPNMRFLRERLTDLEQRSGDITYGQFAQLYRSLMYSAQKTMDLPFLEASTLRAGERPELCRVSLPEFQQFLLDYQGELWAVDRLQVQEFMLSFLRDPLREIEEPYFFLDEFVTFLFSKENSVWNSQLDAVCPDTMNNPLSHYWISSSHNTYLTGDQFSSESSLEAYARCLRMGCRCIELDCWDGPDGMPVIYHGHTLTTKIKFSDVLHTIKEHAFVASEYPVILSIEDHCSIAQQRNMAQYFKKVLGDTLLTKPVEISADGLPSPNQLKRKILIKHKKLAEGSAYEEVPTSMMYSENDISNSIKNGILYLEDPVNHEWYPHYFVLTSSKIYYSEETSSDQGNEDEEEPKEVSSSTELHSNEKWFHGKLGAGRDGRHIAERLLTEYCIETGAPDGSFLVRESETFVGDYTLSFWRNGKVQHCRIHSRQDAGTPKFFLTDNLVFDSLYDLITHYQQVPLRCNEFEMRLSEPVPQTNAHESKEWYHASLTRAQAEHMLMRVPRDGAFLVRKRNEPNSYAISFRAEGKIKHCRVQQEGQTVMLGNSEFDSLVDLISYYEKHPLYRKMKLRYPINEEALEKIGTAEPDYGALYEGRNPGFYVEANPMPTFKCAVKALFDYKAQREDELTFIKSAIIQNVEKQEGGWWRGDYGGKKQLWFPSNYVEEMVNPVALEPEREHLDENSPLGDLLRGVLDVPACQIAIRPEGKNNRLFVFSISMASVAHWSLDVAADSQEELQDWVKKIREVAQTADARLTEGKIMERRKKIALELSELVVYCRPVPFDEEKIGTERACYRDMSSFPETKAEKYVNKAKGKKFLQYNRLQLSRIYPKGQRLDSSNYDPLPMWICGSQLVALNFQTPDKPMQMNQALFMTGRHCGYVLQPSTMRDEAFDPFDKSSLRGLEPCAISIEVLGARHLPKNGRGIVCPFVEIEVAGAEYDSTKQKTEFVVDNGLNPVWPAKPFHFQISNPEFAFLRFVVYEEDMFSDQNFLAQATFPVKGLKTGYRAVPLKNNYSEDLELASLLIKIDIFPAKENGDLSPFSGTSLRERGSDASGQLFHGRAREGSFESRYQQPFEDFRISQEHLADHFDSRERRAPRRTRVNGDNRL

[4] = target: 85 kDa subunit of phosphatidylinositol 3-kinase (PI3-K) (human) (UniProt P27986); experiment: co-immunoprecipitation, immunoblot, SUP-M2 lysates
Sequence of UniProt P27986 (P27986 2-724): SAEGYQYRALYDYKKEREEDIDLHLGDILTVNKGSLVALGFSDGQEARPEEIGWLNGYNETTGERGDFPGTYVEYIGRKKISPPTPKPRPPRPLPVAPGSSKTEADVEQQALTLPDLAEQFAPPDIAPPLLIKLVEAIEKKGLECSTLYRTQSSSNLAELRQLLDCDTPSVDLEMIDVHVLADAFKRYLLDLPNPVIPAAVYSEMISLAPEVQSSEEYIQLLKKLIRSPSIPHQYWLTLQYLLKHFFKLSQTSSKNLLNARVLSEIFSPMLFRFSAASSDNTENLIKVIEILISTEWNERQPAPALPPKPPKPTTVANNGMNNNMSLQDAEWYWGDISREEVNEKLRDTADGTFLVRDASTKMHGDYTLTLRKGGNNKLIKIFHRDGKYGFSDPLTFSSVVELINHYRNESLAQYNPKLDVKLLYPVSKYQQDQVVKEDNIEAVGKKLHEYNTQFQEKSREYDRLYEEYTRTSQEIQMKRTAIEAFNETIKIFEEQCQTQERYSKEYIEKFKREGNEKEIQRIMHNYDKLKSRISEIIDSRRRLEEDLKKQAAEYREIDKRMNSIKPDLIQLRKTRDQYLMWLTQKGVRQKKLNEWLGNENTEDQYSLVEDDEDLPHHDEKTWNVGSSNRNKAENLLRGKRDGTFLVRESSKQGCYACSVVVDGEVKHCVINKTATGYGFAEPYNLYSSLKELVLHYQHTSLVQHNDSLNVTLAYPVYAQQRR

[5] = target: wild-type NPM (nucleophosmin) (human) (UniProt P06748); experiment: co-immunoprecipitation, anti-NPM immunoblot
Sequence of UniProt P06748 (P06748 whole entry): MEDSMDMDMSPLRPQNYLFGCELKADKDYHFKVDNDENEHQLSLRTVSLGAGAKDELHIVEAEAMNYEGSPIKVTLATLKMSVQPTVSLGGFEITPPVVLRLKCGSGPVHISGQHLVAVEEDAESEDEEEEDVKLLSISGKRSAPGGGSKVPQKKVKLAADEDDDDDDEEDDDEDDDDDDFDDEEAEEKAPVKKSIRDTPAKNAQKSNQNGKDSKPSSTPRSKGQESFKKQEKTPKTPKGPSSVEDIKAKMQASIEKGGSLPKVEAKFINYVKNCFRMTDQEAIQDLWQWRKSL

Substance	percentage of the total cellular amount of the substrate bound to NPM/ALK [1] [%]	percentage of the total cell pool of NPM/ALK bound to the substrate [2] [%]	percentage of the total cell pool of NPM/ALK bound to the substrate [3] [%]	percentage of the total cell pool of NPM/ALK bound to the substrate [4] [%]	stoichiometry of the association (ratio) (ratio NPM/ALK:NPM) [5]
85 kDa subunit of phosphatidylinositol 3-kinase (PI3-K) (from UniProt P27986 2-724)	1				
NPM/ALK fusion protein (enzyme)		< 5	< 5	< 5	1
Src homologous and collagen (SHC) protein (from UniProt P29353 1-473)	10				
phospholipase-Cγ (PLC-γ) (from UniProt P19174 2-1290) (enzyme)	1				
